As a reminder, the Kd is the constant that tells how readily two partners part at equilibrium. By koff is commonly meant the first-order rate constant of dissociation. A higher koff goes with fast dissociation. One may read the kon as a measure of how fast the partners come together. Lower therefore signals slower complex formation. In general, stoichiometry N refers to the number of molecules, sites or subunits per partner or assembly.

Holding throughout (details): both partners purified
In test [1] the target is T1, mCherry (Discosoma sp. DsRed-derived, engineered …, chromophore (residues not given)).
T1 construct: Engineered monomeric derivative of DsRed; also called His10-TEV site-mCherry (before cleavage); H10T-mCherry; source: E. coli BL21(DE3), purified (Ni-NTA, TEV cleavage on the column); not shown: His10, N-terminal, cleaved
As to the kind of experiment: BLI; His-SUMO-LaM nanobody (100 nM) loaded on Ni-NTA biosensors; mCherry or DsRed in solution; 20 mM HEPES pH 7.4, 150 mM NaCl, 0.005% Tween-20; association 600 s, dissociation 600 s; 1:1 global fit. On the technique in general: Biolayer interferometry detects binding as a change in optical thickness at a sensor tip.

The target of test [2] is T1, mCherry. As to the kind of experiment: ITC; 100 uM nanobody in the syringe into 10 uM mCherry (or 8.9 uM mCherry-LaM1 or mCherry-LaM3 complex) in the cell; 25 °C; one set of sites. On the technique in general: In ITC the heat of successive injections is recorded.
The target of test [3] is T2, DsRed (Discosoma sp., UniProt Q9U6Y8).
T2 construct: DsRed red fluorescent protein; PDB 1ZGO was used for structural alignment; His6-SUMO-DsRed printed as 39.6 kD; also called tetrameric DsRed protein; His6-SUMO-DsRed (before cleavage); source: prokaryotic expression system, purified (tags removed by ULP1 on the column); not shown: His6, N-terminal, cleaved; SUMO, N-terminal, cleaved
T2 sequence (Q9U6Y8 whole entry): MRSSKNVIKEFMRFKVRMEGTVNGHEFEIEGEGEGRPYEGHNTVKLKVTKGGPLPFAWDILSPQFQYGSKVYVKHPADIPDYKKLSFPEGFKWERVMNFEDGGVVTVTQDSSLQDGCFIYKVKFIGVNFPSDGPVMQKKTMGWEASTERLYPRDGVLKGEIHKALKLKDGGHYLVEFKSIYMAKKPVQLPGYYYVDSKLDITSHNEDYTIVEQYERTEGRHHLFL
Put plainly: BLI; His-SUMO-LaM nanobody (100 nM) loaded on Ni-NTA biosensors; mCherry or DsRed in solution; 20 mM HEPES pH 7.4, 150 mM NaCl, 0.005% Tween-20; association 600 s, dissociation 600 s; 1:1 global fit.

B1: His-SUMO-LaM1 (VHH)
VHH: QVQLVESGGGLVQAGDSLRLSCAASGRTFENYAMGWFRQAPGKEREFVGAVSWGGGRTYYADNVKGRFTISRDNAKKNTVYLQMNSLKPEDTAVYYCAAKSVLTIATMRVPDEYNYWGQGTQVTVS
notes: held in PDB 8IM1; Captured by its His tag on NTA biosensors in BLI; vector pET28a-SUMO; also called Sumo-His tagged LaM1; source: E. coli BL21(DE3), purified (Ni-NTA, eluted with imidazole); not shown: His, N-terminal, kept; SUMO, N-terminal, kept
In test [1], B1 yielded a Kd of 12.9 nM, a koff of 0.00117 s⁻¹ and a kon of 91300 M⁻¹ s⁻¹.

B2: LaM1 (VHH)
VHH: QVQLVESGGGLVQAGDSLRLSCAASGRTFENYAMGWFRQAPGKEREFVGAVSWGGGRTYYADNVKGRFTISRDNAKKNTVYLQMNSLKPEDTAVYYCAAKSVLTIATMRVPDEYNYWGQGTQVTVS
notes: Tag-removed form; also called llama nanobody against mCherry 1; source: E. coli BL21(DE3), purified (Ni-NTA, ULP1 cleavage on the column, ion exchange or size exclusion chromatography); not shown: His, N-terminal, cleaved; SUMO, N-terminal, cleaved
For B2, in test [2], the Kd came to 289 nM, the dH was -28.7 ± 0.906 kcal/mol and the “stoichiometry N” value amounted to 1 sites.

B3: His-SUMO-LaM8 (VHH)
VHH: QVQLVESGGGLVQAGGSLRLSCAVSGRPFSEYNLGWFRQAPGKEREFVARIRSSGTTVYTDSVKGRFSASRDNAKNMGYLQLNSLEPEDTAVYYCAMSRVDTDSPAFYDYWGQGTQVTVST
notes: held in PDB 8IM0; Captured by its His tag on NTA biosensors in BLI; vector pET28a-SUMO; also called Sumo-His tagged LaM8; source: E. coli BL21(DE3), purified (Ni-NTA, eluted with imidazole); not shown: His, N-terminal, kept; SUMO, N-terminal, kept
Consider B3, for which, in test [1], the Kd was found to be 36.8 nM, the koff stood at 0.00926 s⁻¹ and the kon came to 252000 M⁻¹ s⁻¹.

B4: LaM8 (VHH)
VHH: QVQLVESGGGLVQAGGSLRLSCAVSGRPFSEYNLGWFRQAPGKEREFVARIRSSGTTVYTDSVKGRFSASRDNAKNMGYLQLNSLEPEDTAVYYCAMSRVDTDSPAFYDYWGQGTQVTVST
notes: Tag-removed form; also called llama nanobody against mCherry 8; source: E. coli BL21(DE3), purified (Ni-NTA, ULP1 cleavage on the column, ion exchange or size exclusion chromatography); not shown: His, N-terminal, cleaved; SUMO, N-terminal, cleaved
B4: in test [2], binding was put at a Kd of 199 nM, the dH was -11.2 ± 1.51 kcal/mol and the “stoichiometry N” value amounted to 0.842 sites.

B5: His-SUMO-LaM3 (VHH)
VHH: QVQLVQSGGGLVQAGGSLRLSCAASGRTFSDIAVGWFRQTPGKEREFVAAISWSGLIINYGDSVEDRFTISRDNAKSAVYLQMNSLKPEDTAVYYCAARIGMNYYYAREIEYPYWGQGTQVTVSK
notes: held in PDB 8ILX; Captured by its His tag on NTA biosensors in BLI; vector pET28a-SUMO; also called Sumo-His tagged LaM3; source: E. coli BL21(DE3), purified (Ni-NTA, eluted with imidazole); not shown: His, N-terminal, kept; SUMO, N-terminal, kept
Consider B5, for which, in test [1], the Kd is 30.6 nM, the koff is 0.00324 s⁻¹ and the kon is 106000 M⁻¹ s⁻¹. Besides, in test [3], the Kd is 7130 nM, the koff worked out at 0.000443 s⁻¹ and the kon was 62.2 ± 1.02 M⁻¹ s⁻¹.

B6: LaM3 (VHH)
VHH: QVQLVQSGGGLVQAGGSLRLSCAASGRTFSDIAVGWFRQTPGKEREFVAAISWSGLIINYGDSVEDRFTISRDNAKSAVYLQMNSLKPEDTAVYYCAARIGMNYYYAREIEYPYWGQGTQVTVSK
notes: Tag-removed form; also called llama nanobody against mCherry 3; source: E. coli BL21(DE3), purified (Ni-NTA, ULP1 cleavage on the column, ion exchange or size exclusion chromatography); not shown: His, N-terminal, cleaved; SUMO, N-terminal, cleaved
Regarding B6, in test [2], the affinity, expressed as Kd, was 13.7 nM; the dH was -13.7 ± 0.157 kcal/mol; the “stoichiometry N” value stood at 0.913 sites.

(Values after publication PMC10138814, “Structural Insights into the Binding of Red Fluorescent Protein mCherry-Specific Nanobodies” (International Journal of Molecular Sciences, 2023).)
